Assay results reported in publication PMC6018003, “Quantifying the Interaction between Copper-Zinc Superoxide Dismutase (Sod1) and its Copper Chaperone (Ccs1)” (Journal of proteomics & bioinformatics, 2018).

T1: H46R/H48Q/C146S Sod1 labeled with Alexa-546 at C57 (yeast, Alexa-546 C5-maleimide on C57)
T1 construct: two residue (Gly-His) extension left on the N-terminus after TEV cleavage; The vector with His tag and TEV site is stated for Ccs1; the purification with tag removal is told of both proteins; also called immature Sod1; E, E-Sod1^SH; source: E. coli BL21 (DE3) pLysS, purified (HisTrap HP Ni2+ column, TEV cleavage; Superdex 200 after labeling); not shown: His8, N-terminal, cleaved
T1 sequence (P00445 2-154 with H46R H48Q C146S, looked up): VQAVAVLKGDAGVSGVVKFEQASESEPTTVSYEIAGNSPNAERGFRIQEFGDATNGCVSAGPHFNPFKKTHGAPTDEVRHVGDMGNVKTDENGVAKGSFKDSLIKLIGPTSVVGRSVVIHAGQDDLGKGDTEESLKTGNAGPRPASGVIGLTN


Target: T1, H46R/H48Q/C146S Sod1 labeled with …
Test: other fluorescence titration; microplate, quenching of Alexa-546-labeled Sod1 on titration with Ccs1; Sod1 metal deficient and disulfide reduced (E, E-Sod1^SH); 20 mM Tris pH 7.5, 150 mM NaCl, 1 mM TCEP, 0.01% octyl glucoside and CHAPS
Settings: both partners purified

Kd [nM] | Binder
217 ± 38 | Ccs1 lacking D1 (domain or fragment) IRGAGKPNSSAVAILETFQKYTIDQKKDTAVRGLARIVQVGENKTLFDITVNGVPEAGNYHASIHEKGDVSKGVESTGKVWHKFDEPIECFNESDLGKNLYSGKTFLSAPLPTWQLIGRSFVISKSLNHPENEPSSVKDYSFLGVIARSAGVWENNKQVCACTGKTVWEERKDALANNIK
552 ± 105 | Ccs1 lacking D3 (domain or fragment) MTTNDTYEATYAIPMHCENCVNDIKACLKNVPGINSLNFDIEQQIMSVESSVAPSTIINTLRNCGKDAIIRGAGKPNSSAVAILETFQKYTIDQKKDTAVRGLARIVQVGENKTLFDITVNGVPEAGNYHASIHEKGDVSKGVESTGKVWHKFDEPIECFNESDLGKNLYSGKTFLSAPLPTWQLIGRSFVISKSLNHPENEPSSVKDYSFLGVIARSAGVW
